Molecular target: IgG
Assay: not stated; equilibrium affinity of recombinant CHO FcγRIIIa for IgG, before and after enzymatic desialylation; method and conditions only in the supplement (Fig. S16)

enzymatically desialylated recombinant FcγRIIIa expressed in CHO cells (from UniProt P08637 17-254) (receptor)
fold increase in equilibrium affinity against the untreated FcγRIIIa: 2 fold

— publication PMC6398215
